Data on two molecules can be found in publication PMC8808184 (The Journal of Biological Chemistry, 2021).

As a reminder, the Kd is the free concentration of one partner at which half of the binding sites on the other are occupied at equilibrium, for simple one-to-one binding. A higher Kd goes with a looser complex.

The chains are these.
B1: FN1–FN3 region of human CNTN4 (domain or fragment, UniProt Q8IWV2 599-899, looked up)
chain: PPEAVTIDEITDTTAQLSWRPGPDNHSPITMYVIQARTPFSVGWQAVSTVPELIDGKTFTATVVGLNPWVEYEFRTVAANVIGIGEPSRPSEKRRTEEALPEVTPANVSGGGGSKSELVITWETVPEELQNGRGFGYVVAFRPYGKMIWMLTVLASADASRYVFRNESVHPFSPFEVKVGVFNNKGEGPFSPTTVVYSAEEEPTKPPASIFARSLSATDIEVFWASPLEKNRGRIQGYEVKYWRHEDKEENARKIRTVGNQTSTKITNLKGSVLYHLAVKAYNSAGTGPSSATVNVTTRKP
notes: human contactin 4, FN1–FN3; source: E. coli BL21(DE3), purified (IMAC, 3C protease cleavage, ion exchange, gel filtration)
B2: E1 domain of human APLP2 (domain or fragment, UniProt Q06481 46-205, looked up)
chain: AVAEPQIAMFCGKLNMHVNIQTGKWEPDPTGTKSCFETKEEVLQYCQEMYPELQITNVMEANQRVSIDNWCRRDKKQCKSRFVTPFKCLVGEFVSDVLLVPEKCQFFHKERMEVCENHQHWHTVVKEACLTQGMTLYSYGMLLPCGVDQFHGTEYVCCPQ
modifications: biotin (EZ-Link NHS-PEG4-Biotin, 1:1 molar ratio)
notes: human amyloid beta precursor like protein 2, E1 domain; host and tags are those told for the E1 domains in general; source: E. coli Origami2(DE3), purified (as told for the E1 domains)

What all share (test): BLI; biotinylated E1 domain ([…] nM) immobilised on streptavidin tips, CNTN FN1–FN3 in solution; room temperature; 150 mM NaCl, 10 mM Na-Hepes pH 7.5, 1 mg/ml BSA, 0.02% Tween-20; BLItz or Octet K2; KD from the signal at equilibrium
Conditions in all cases: both partners purified

In the assay “E1 domain of human APLP2” the target is B2.
Assay [1] concerns the target B1.
Assay [2] has as its target T1, FN1–FN3 region of CNTN5 titrated against human APLP1(E1) and human APLP2(E1) ( (chicken, human, mouse and …, UniProt O94779 673-972)).
T1 construct: contactin 5, FN1–FN3; source: E. coli BL21(DE3), purified (IMAC, 3C protease cleavage, ion exchange, gel filtration)
T1 sequence (looked up): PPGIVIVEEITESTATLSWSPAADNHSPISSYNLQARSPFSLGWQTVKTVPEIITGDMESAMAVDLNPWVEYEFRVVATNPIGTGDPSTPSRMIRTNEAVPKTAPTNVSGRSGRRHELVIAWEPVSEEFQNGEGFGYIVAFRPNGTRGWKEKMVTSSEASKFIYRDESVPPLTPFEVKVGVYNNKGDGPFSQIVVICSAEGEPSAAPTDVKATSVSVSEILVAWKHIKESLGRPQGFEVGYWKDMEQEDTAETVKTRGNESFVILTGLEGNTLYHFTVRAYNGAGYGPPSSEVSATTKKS

As for B1, in the assay with E1 domain of human APLP2, the “fold decrease in affinity against human CNTN4 with APLP1” value came out at 4 fold.

For the molecule B2, the Kd in assay [1] was 6.3 µM; in assay [2] it was around 38 µM.
